Laboratory results published in patent publication US20250043302A1, “MUTATED HYDROXYPHENYLPYRUVATE DIOXYGENASE POLYPEPTIDE, AND CODING GENE AND USE THEREOF” (BEIJING DABEINONG BIOTECHNOLOGY CO., LTD., priority 2021, published 2025).

Legend:
Assay type in all cases: in vivo
[1] = system: Arabidopsis thaliana T1 plants; assay: Mesotrione tolerance of transgenic Arabidopsis thaliana T1 plants (spray, bleached leaf area grade, damage score); design: Scores: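 damage score 0-100 computed as Σ(N×S)/(T×M)×100 over grades 0-3 with higher meaning more damage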; settings: Arabidopsis thaliana T1 plants; for Grade 0 (classification and statistics of the grade of pesticide damage; number of plants) / Grade 1 (classification and statistics of the grade of pesticide damage; number of plants) / Grade 2 (classification and statistics of the grade of pesticide damage; number of plants) / Grade 3 (classification and statistics of the grade of pesticide damage; number of plants): 16 plants
Method in brief: (§1)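 T1 transformants selected by glufosinate; 18-day-old plants, with empty-vector and wild-type controls, sprayed with topramezone (25–200 g ai/ha), isoxaflutole (35–280 g ai/ha) or mesotrione (52.5–420 g ai/ha), water as 0×. Bleached leaf area fraction scored at 7 DAT as grades 0–3.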

[2] = system: Arabidopsis thaliana T1 plants; assay: Isoxaflutole tolerance of transgenic Arabidopsis thaliana T1 plants (spray, bleached leaf area grade, damage score); design: Scores (pesticide damage): scale not given here; settings: spray, Arabidopsis thaliana T1 plants; for Classification and statistics of the grade of pesticide damage: Grade 0 (number of plants) / Classification and statistics of the grade of pesticide damage: Grade 1 (number of plants) / Classification and statistics of the grade of pesticide damage: Grade 2 (number of plants) / Classification and statistics of the grade of pesticide damage: Grade 3 (number of plants): 16 plants
Method in brief: as §1

[3] = system: Arabidopsis thaliana T1 plants; assay: Topramezone tolerance of transgenic Arabidopsis thaliana T1 plants (spray, bleached leaf area grade, damage score); settings: 7 DAT, Table 4; for Classification and statistics of the grade of pesticide damage: Grade 0 / Classification and statistics of the grade of pesticide damage: Grade 1 / Classification and statistics of the grade of pesticide damage: Grade 2 / Classification and statistics of the grade of pesticide damage: Grade 3: number of plants; for Scores: pesticide damage score 0-100
Method in brief: as §1

[4] = isoxaflutole 35 g ai/ha (0.5x field concentration)
[5] = isoxaflutole 70 g ai/ha (1x field concentration)

B1: ZmHPPDm-F372A-F383W-02: nucleotide sequence encoding Zea mays HPPD with F372A+F383W; vector DBN11769 (nucleic acid)
DNA: ATGCCACCCACACCCACAGCAGCAGCGGCGGGCGCAGCGGTCGCAGCGGCGTCAGCGGCGGAGCAAGCGGCGTTCAGATTGGTTGGTCACCGCAACTTCGTGAGATTCAATCCTCGCTCAGATAGATTCCATACTCTGGCCTTCCACCATGTTGAGCTTTGGTGCGCTGATGCTGCTTCTGCTGCTGGAAGGTTCAGCTTCGGTTTGGGTGCTCCCCTCGCTGCTAGATCTGATTTGAGCACTGGTAACTCAGCACATGCTTCCCTCCTGCTTAGATCTGGCTCTCTGAGCTTCCTTTTCACTGCTCCATATGCTCATGGTGCTGATGCTGCTACAGCTGCTCTCCCTTCATTCTCCGCTGCTGCTGCTAGGAGATTCGCTGCTGATCACGGATTGGCTGTGAGGGCTGTTGCACTTAGAGTTGCTGATGCTGAGGAGGCCTTCCGCACCTCTGTTGCTGCTGGAGCCAGACCAGCTTTCGGACCTGTTGATCTCGGAAGGGGTTTCCGCCTGGCTGAGGTGGAGCTTTACGGCGATGTGGTTCTGCGCTACGTTAGCTATCCTGATGGTGCTGCTGGTGAACCTTTCCTTCCAGGATTCGAGGGTGTGGCCTCACCAGGTGCCGCTGATTACGGCCTGTCCAGATTCGACCACATTGTTGGAAATGTTCCTGAGCTTGCTCCAGCTGCTGCCTACTTCGCTGGCTTCACCGGATTCCATGAGTTCGCCGAGTTCACCACTGAGGATGTGGGAACTGCTGAGTCTGGTTTGAATAGCATGGTGCTCGCCAACAATTCAGAGAACGTTTTGCTCCCTCTGAATGAGCCCGTGCACGGAACAAAGAGAAGGTCCCAGATTCAAACCTTCTTGGATCACCACGGCGGCCCAGGTGTTCAGCATATGGCTCTCGCCTCCGATGACGTGTTGAGAACCCTCAGGGAGATGCAAGCCAGGTCTGCTATGGGTGGCTTCGAGTTCATGGCCCCACCTACAAGCGATTACTATGATGGTGTGCGCAGAAGGGCTGGCGACGTTCTTACCGAGGCTCAGATCAAGGAGTGCCAAGAGCTGGGCGTGCTTGTTGATAGAGATGACCAGGGAGTTCTGCTTCAAATTGCTCCCAAGCCAGTGGGCGACAGGCCTACTTTGTGGCTCGAGATTATCCAGAGAATCGGATGCATGGAGAGGGATGAGAAGGGTCAGGAGTACCAAAAGGGAGGTTGCGGCGGATTCGGCAAGGGAAATTTCTCACAACTCTTCAAGTCCATCGAGGACTATGAAAAGAGTCTGGAAGCGATGCAGGCAGCAGCAGCAGCAACCGCACAGGGGTCGTGA
modifications: ZmHPPDm-F372A-F383W-02 Nucleotide Sequence
notes: vector DBN11769
- Resistance evaluation ([1]; mesotrione 52.5 g ai/ha): Highly resistant
- Scores ([1]; mesotrione 52.5 g ai/ha): 15
- Grade 0 (classification and statistics of the grade of pesticide damage; number of plants) ([1]; mesotrione 52.5 g ai/ha): 9
- Grade 1 (classification and statistics of the grade of pesticide damage; number of plants) ([1]; mesotrione 52.5 g ai/ha): 7
- Grade 2 (classification and statistics of the grade of pesticide damage; number of plants) ([1]; mesotrione 52.5 g ai/ha): 0
- Grade 3 (classification and statistics of the grade of pesticide damage; number of plants) ([1]; mesotrione 52.5 g ai/ha): 0
- Resistance evaluation ([1]; mesotrione 105 g ai/ha): Moderately
- Scores ([1]; mesotrione 105 g ai/ha): 33
- Grade 0 (classification and statistics of the grade of pesticide damage; number of plants) ([1]; mesotrione 105 g ai/ha): 3
- Grade 1 (classification and statistics of the grade of pesticide damage; number of plants) ([1]; mesotrione 105 g ai/ha): 10
- Grade 2 (classification and statistics of the grade of pesticide damage; number of plants) ([1]; mesotrione 105 g ai/ha): 3
- Grade 3 (classification and statistics of the grade of pesticide damage; number of plants) ([1]; mesotrione 105 g ai/ha): 0
- Resistance evaluation [2, 4]: Moderately
- Scores (pesticide damage) [2, 4]: 25
- Classification and statistics of the grade of pesticide damage: Grade 0 (number of plants) [2, 4]: 5
- Classification and statistics of the grade of pesticide damage: Grade 1 (number of plants) [2, 4]: 10
- Classification and statistics of the grade of pesticide damage: Grade 2 (number of plants) [2, 4]: 1
- Classification and statistics of the grade of pesticide damage: Grade 3 (number of plants) [2, 4]: 0
- Resistance evaluation [2, 5]: Poorly
- Scores (pesticide damage) [2, 5]: 38
- Classification and statistics of the grade of pesticide damage: Grade 0 (number of plants) [2, 5]: 3
- Classification and statistics of the grade of pesticide damage: Grade 1 (number of plants) [2, 5]: 8
- Classification and statistics of the grade of pesticide damage: Grade 2 (number of plants) [2, 5]: 5
- Classification and statistics of the grade of pesticide damage: Grade 3 (number of plants) [2, 5]: 0
- Classification and statistics of the grade of pesticide damage: Grade 0 ([3]; topramezone 25 g ai/ha (1×)): 16
- Classification and statistics of the grade of pesticide damage: Grade 1 ([3]; topramezone 25 g ai/ha (1×)): 0
- Classification and statistics of the grade of pesticide damage: Grade 2 ([3]; topramezone 25 g ai/ha (1×)): 0
- Classification and statistics of the grade of pesticide damage: Grade 3 ([3]; topramezone 25 g ai/ha (1×)): 0
- Classification and statistics of the grade of pesticide damage: Grade 0 ([3]; topramezone 100 g ai/ha (4×)): 10
- Classification and statistics of the grade of pesticide damage: Grade 1 ([3]; topramezone 100 g ai/ha (4×)): 5
- Classification and statistics of the grade of pesticide damage: Grade 2 ([3]; topramezone 100 g ai/ha (4×)): 1
- Classification and statistics of the grade of pesticide damage: Grade 3 ([3]; topramezone 100 g ai/ha (4×)): 0
- Scores ([3]; topramezone 25 g ai/ha (1×)): 0
- Scores ([3]; topramezone 100 g ai/ha (4×)): 15
- Resistance evaluation ([3]; topramezone 25 g ai/ha (1×)): highly
- Resistance evaluation ([3]; topramezone 100 g ai/ha (4×)): highly
